Test results: a protein production outcome set (Wang et al. 2014)

Assay: label from the status in PepcDB records

Row | Sequence | protein production
1 | MIEKVYCQEVKPELDGKKVRLAGWVYTNMRVGKKIFLWIRDSTGIVQAVVAKNVVGEETFEKAKKLGRESSVIVEGIVKADERAPGGAEVHVEKLEVIQAVSEFPIPENPEQASPELLLDYRHLHIRTPKASAIMKVKETLIMAAREWLLKDGWHEVFPPILVTGAVEGGATLFKLKYFDKYAYLSQSAQLYLEAAIFGLEKVWSLTPSFRAEKSRTRRHLTEFWHLELEAAWMDLWDIMKVEEELVSYMVQRTLELRKKEIEMFRDDLTTLKNTEPPFPRISYDEAIDILQSKGVNVEWGDDLGADEERVLTEEFDRPFFVYGYPKHIKAFYMKEDPNDPRKVLASDMLAPEGYGEIIGGSQREDDYDKLLNRILEEGMDPKDYEWYLDLRRYGSVPHSGFGLGVERLVAWVLKLDHIRWAALFPRTPARLYP | not failed
2 | MMNNMDSIINYIYEGDYFIVTSHISPDGDNIGSTLSMYYTLKNLGKNVYYVLDDEAPLNLRFLVEGVKIYKSNEFNMKNYSLIALDCGDKMRICVSDEIKNNASKLICIDHHASNDSYGDLNYVDIDASSTCELVYNLLVRFQQIKDINIINEDIATCLYTGLVTDTGNFSYSNVHASSFEMAKNLLVLGAQKNTIIQNIYQSN | failed
3 | MISSATKTLQTNNKTIYVAILSTLTFFLFLDYIPGLQAWSAWVTPPVALFLGLIFALTCGQAHPKFNKKTSKYLLQYSVVGLGFGMNLQSALASGKEGMEFTVISVVGTLLIGWFIGRKIFKIDRNTSYLISSGTAICGGSAIAAIGPVLRAKDSEMSVALGTIFILNAIALFIFPAIGHALDMTEHQFGTWAAIAIHDTSSVVGAGAAYGEEALKVATTIKLTRALWIIPMAFATSFIFKSKGQKISIPWFIFFFILAMIANTYLLNGVPQLGAAINGIARKTLTITMFFIGASLSLDVLRSVGVKPLIQGVLLWVVISLSTLAYIYFV | failed
4 | MKEVSAAPKITNVKAAILGFQHLLAMYSGDVLVPLLIGAALHFSQEQLTYLVSIDIFMCGIATFLQLKRTPLTGIGLPVVLGCAVQAVNPLIQIGKTYGLGTMYGSIIGAGIFIFLIAGLFSKIKNLFPPVVTGSLITIIGFTLIPVAFQNLGGGDTSAKDFGNLQALGIGFLTIAIILLISVFARGFMKSVSILIGILVGTLIAGAMGMVSLKPVAEASWFHLPTLFYFGTPHFEWSSILTMILVSLTTMVESTGVFFALGDITGRKIEGDDLKRGYRAEGIAVILGGLFSTFPYSTFSENVGVVQLSGVKTRKPIYFSAAFLVVLGLLPKIGALATIIPDPVLGGAMVVMFGIVGIQGIRMLAQVDFRNNNNLLVAAVSIGLGLGVTVQTNIFQFLPGALQIMLSNGVVVGSVAAVGLNLLFNRHAAENTVDDESVGLNETEQP | failed
5 | NDPDADRFAVAARKADGEYQMLTGDQVGSLFGHYLLSQTDAHRQLVGNTIVSSSLLSKIAAAHGARYYQTLTGFKWLTNVAMQEQTEQHQFLFAYEEALGYTIGSTVWDKDGLSALVAFAQLAAELNAQGKTVWDQLEALYRQHGLHVN | failed
6 | MKAYLGLYTARLETPARSLKEKRALIKPALERLKARFPVSAARLYGLDAWGYEVVGFTLLGNDPAWVEETMRAAARFLAEAGGFQVALEEFRLEAFELDGLL | not failed
7 | MIIPKMSRHALIGGGTGFIGRNLANHLTKKGYDVTVISRMPGAKRITWHELEKNGIPGSVNAVVNATGQNTLDPTRRWTPGFQQNVWNSRINSSKTLAQAIKSAPQVSSFVNLCGVSHYKPSESKVYTEEDQVQGFDYMSRLCLAWEEAAHTGSEQDCKTTILRCGAVVGHGGGMVQSMWLPFKFGVGGPLGNGNQIMPWIHLHDLCSLIQYIIEKPVPGVVNAVAPEITSNLEFSKAFAKALHRPCIFGVPEFVVQAIFGPERAALVLSGAKVKPQKALSSGFKFQYPSVKEAVTQLTLKG | failed
8 | MNLNNIRSSMTESTKSKDESMRSHLVKPGSVYDGIEPGELGETTESVQDRVRQLESRNSFLEEQCSQIESEKRYLENQKIKYEREIRKLQSELDRMKTSPLIIGTVIDVIKNDRIIVRSSNGPQFLVNVSQYIDEKKLLPGAKVALNQHTLAIAEVIPSTEEPFVAAMEVIESVEVDYDQIGGLDEQIQELQEAVELPLTSPERFARIGIEPPKGVLLYGLPGTGKTLLAKAVAHRTNATFIRVVGSELVQKYIGDGSKLVREIFEMARKKAPSIIFIDELDSIAARRLNETTGADREVQRTLMQLLAEMDGFDKRKNIRIIAATNRPDVLDPAILRPGRFDRLVHVPMPGIEARGKILKIHCEKMTLAEDIDFKKLAKATEGMSGADLKAIATEAGMFAVRRDKELVEMEEFLEAVEKVSMAADTQKMMPSNLPETMFV | failed
9 | MIRLSNENTIFFMDKENVPIASCQSGDTVIFETKDCFSDQITNEEQALTSIDFNRVNPATGPLYVEGARRGDMLEIEILDIKVGKQGVMTAAPGLGALGESLNSPTTKLFPIEGDDVVYSTGLRLPLQPMIGVIGTAPPGEPINNGTPGPHGGNLDTKDIKPGTTVYLPVEVDGALLALGDLHAAMGDGEILICGVEIAGTVTLKVNVKKERMFPLPALKTDTHFMTIASAETLDAAAVQATKNMATFLANRTALSIEEAGMLLSGAGDLYVSQIVNPLKTARFSLALHYFEKLGVDLCN | not failed
10 | MESWLFLLLIALIAFVAKNQSLLIASVVVLALKALPNSAKIMSWLSDKGINLGVTIISITILVPIATGQIGLKDLIQSFKTPMGWLGILCGILVAVLSSKGVGLINQSPEITVALVFGTILGVVFLKGIAAGPIIASGMMYVIITTFQAFQH | failed
11 | MGKIFCIVQARMGSERLQGKVIKPILKKPMVIYTLDRLKKSKYIDKIVLATSSMERETPLVESCEEYGYDVFKGSEANVLKRYEQAAEKYGANIEDAVIRVTGDCPLIDPIIVDNVVTKFLSSDYDYVRLDVPNTFVRGFDVEIFSMKALKTVNSLINGGKIPKEEADMYKEHVTLYMYKHPNEFKVGYVKGDEFYSKDYRLCVDTKEDFELVKNIYEHFNDEFVSSKNVINYLDRNSEIAQINNDIKQKEVLEHHHHHH | not failed
12 | MLSKFLLFSARLSTTKILASLIIIMILATGLYQWLIHTPAFSPQVSAVSTTTENDFSLTDWTINLVDKLNWQQGGSSTFFNAGLLFVFLSLATSVGLPRQIAALVAGINLGAFIGIIVATLAATLGCFITFSVARYLLSDCITRKYPSKLAQLSAFLGEQTFLKAIVIRILPLGSNFITNIIAGVSKVSMPAYVSGSFVGFIPQMVIFSLAGSGIRLGAQNELIASATLFVIALILTTYLVKKHKAKTKN | failed
13 | MSTPRQILAAIFDMDGLLIDSEPLWDRAELDVMASLGVDISRRNELPDTLGLRIDMVVDLWYARQPWNGPSRQEVVEQVIARAISLVEETRPLLPGVREAVALCKEQGLLVGLASASPLHMLEKVLTMFDLRDSFDALASAEKLPYSKPHPQVYLDCAAKLGVDPLTCVALEDSVNGMIASKAARMRSIVVPAPEAQNDPRFVLANVKLSSLTELTAKDLLG | not failed
14 | MNSIKNVPARVLSRRPGHSLEAEREQFDKTQAISISKAINTQEAPVKEKHARRIILGTHHEKGAFTFWSYAIGLPLPSSSILSWKFCHVLHKVLRDGHPNVLHDCQRYRSNIREIGDLWGHLHDRYGQLVNVYTKLLLTKISFHLKHPQFPAGLEVTDEVLEKAAGTDVNNIFQLTVEMFDYMDCELKLSESVFRQLNTAIAVSQMSSGQCRLAPLIQVIQDCSHLYHYTVKLLFKLHSCLPADTLQGHRDRFHEQFHSLRNFFRRASDMLYFKRLIQIPRLPEGPPNFLRASALAEHIKPVVVIPEEAPEDEEPENLIEISTGPPAGEPVVVADLFDQTFGPPNGSVKDDRDLQIESLKREVEMLRSELEKIKLEAQRYIAQLKSQVNALEGELEEQRKQKQKALVDNEQLRHELAQLRAAQLEGERSQGLREEAERKASATEARYNKLKEKHSELVHVHAELLRKNADTAKQLTVTQQSQEEVARVKEQLAFQVEQVKRESELKLEEKSDQLEKLKRELEAKAGELARAQEALSHTEQSKSELSSRLDTLSAEKDALSGAVRQREADLLAAQSLVRETEAALSREQQRSSQEQGELQGRLAERESQEQGLRQRLLDEQFAVLRGAAAEAAGILQDAVSKLDDPLHLRCTSSPDYLVSRAQEALDAVSTLEEGHAQYLTSLADASALVAALTRFSHLAADTIINGGATSHLAPTDPADRLIDTCRECGARALELMGQLQDQQALRHMQASLVRTPLQGILQLGQELKPKSLDVRQEELGAVVDKEMAATSAAIEDAVRRIEDMMNQARHASSGVKLEVNERILNSCTDLMKAIRLLVTTSTSLQKEIVESGRGAATQQEFYAKNSRWTEGLISASKAVGWGATQLVEAADKVVLHTGKYEELIVCSHEIAASTAQLVAASKVKANKHSPHLSRLQECSRTVNERAANVVASTKSGQEQIEDRDTMDFSGLSLIKLKKQEMETQVRVLELEKTLEAERMRLGELRKQHYVLAGASGSPGEEVAIRPSTAPRSVTTKKPPLAQKPSVAPRQDHQLDKKDGIYPAQLVNY | not failed
15 | AGGEDRGDGEPVSVVTVRVQYLEDTDPFACANFPEPRRAPTCSLDGALPLGAQIPAVHRLLGAPLKLEDCALQVSPSGYYLDTELSLEEQREMLEGFYEEISKGRKPTLILRTQLSVRVNAILEKLYSSSGPELRRSLFSLKQIFQEDKDLVPEFVHSEGLSCLIRVGAAADHNYQSYILRALGQLMLFVDGMLGVVAHSDTIQWLYTLCASLSR | failed
16 | MIPRCLINQILRLAQASPEREVCGLVGAAAGRRMRCYPVPNVAERPECRFLLDPKGQIDALRAMRERGEELFAIFHSHPTAAAIPSPADLEFAAYPEALHLIVSLGTKGVLEMRGFRIGSSSRPREVELLLAPELEHHHHHH | failed
17 | MTPLHGAATPASASAAGSMKASHEASADPRSRFFDERAATWEQRCYPPEARRRLAALVPRFGVERGDCVLDMGTGTGVLIPYLRDGVGDAGRILSFDVSFEMVRRAGCKERDAKGLCVQATAMRIPARDGVFDRVVCFAAFPHFADKPAAMREMARVVRPGGEVVIAHLLSRAELARHHGGHPAVAEDALPDDATMRGLMHDAGLVEGSITDGPGMYVARARKPRTCRAGEGGVPGTPGTPGGRAGGSAGGEGAESAIAGDAEGNGSGVEAGFEARRVFTALKQNDAMHHSAVYGVLSGLLRAFACDAALPHGAPGQGGALRILDVGCGEAADVVQALEGVTVGAYTGVDTSAPALAEARRHLAALGCPVTLIEGDYRLALNTSQGSVDVLWMGLFLHHLPRALKADFLHTAHGLLAPGGMVLAHDPIMGEDDTRETMLARMEAIGRERWHFLTPEEVGMVHRHWSCHGHQERFSDLCALGEAAGFEVDMVWHDADRTYGLVRFMRRG | failed
18 | MNILTLMETFSAVVEAGSFTGAAEKLGLSKSFVSKQVSTLEVELGCRLLYRTTRTLSLSDEGSQFYNHCKIIMAEAENARAEVMDRQGAPRGKIRMTIPQSLIISGFGQLLIDFQLQYPEIKLEVIASGRIEDLVKEGIDIALRVGQLEDSSLISRRLMDCTFQVVASSDYIKKWGEPFQPADLMQHNCLIYGDSKINKGWPFRSPSGESITVKAKGNFISNDGGLVVEGMLNGLGIGFGPSFLFNEHVEKGRLKLLLSDYYQPPTAISALYPLNRNLSRRIRLLIDYLSERLSV | not failed
19 | MTPAARLSAAIGILDRILGGTPAEQALTNWGRASRFAGSGDRAAVRDLVFDALRCRRSFARAGGAETGRGLVLGGLRMAGQEVGDLFTGEGHAPAPPAGSELKPQAPAELEALDCPDWLAPALRDSLGADFAPVMEALRHRAPVFLRVNLARTDRAAAAAELAAEGIVTQPHPLAETALEVTENPRRLQASAAYREGRVELQDAASQAIVAALPLAPGDRVLDYCAGGGGKSLAMAARAPIDLSAHDADPRRMRDLPERAARAGVKVRRLAPGDPARRGPFDLVLADVPCSGSGSWRRAPEGKWSLTPERLAELRAIQSTILDEVAPLVRPGGHLAYATCSLLASENAGQTEAFLERTSGWTRVHQLRLTPLDGGDGFFLDLLQRNG | failed
